In patent US20160030510:

Target: human tau protein, P10636
Sequence (P10636 whole entry, looked up): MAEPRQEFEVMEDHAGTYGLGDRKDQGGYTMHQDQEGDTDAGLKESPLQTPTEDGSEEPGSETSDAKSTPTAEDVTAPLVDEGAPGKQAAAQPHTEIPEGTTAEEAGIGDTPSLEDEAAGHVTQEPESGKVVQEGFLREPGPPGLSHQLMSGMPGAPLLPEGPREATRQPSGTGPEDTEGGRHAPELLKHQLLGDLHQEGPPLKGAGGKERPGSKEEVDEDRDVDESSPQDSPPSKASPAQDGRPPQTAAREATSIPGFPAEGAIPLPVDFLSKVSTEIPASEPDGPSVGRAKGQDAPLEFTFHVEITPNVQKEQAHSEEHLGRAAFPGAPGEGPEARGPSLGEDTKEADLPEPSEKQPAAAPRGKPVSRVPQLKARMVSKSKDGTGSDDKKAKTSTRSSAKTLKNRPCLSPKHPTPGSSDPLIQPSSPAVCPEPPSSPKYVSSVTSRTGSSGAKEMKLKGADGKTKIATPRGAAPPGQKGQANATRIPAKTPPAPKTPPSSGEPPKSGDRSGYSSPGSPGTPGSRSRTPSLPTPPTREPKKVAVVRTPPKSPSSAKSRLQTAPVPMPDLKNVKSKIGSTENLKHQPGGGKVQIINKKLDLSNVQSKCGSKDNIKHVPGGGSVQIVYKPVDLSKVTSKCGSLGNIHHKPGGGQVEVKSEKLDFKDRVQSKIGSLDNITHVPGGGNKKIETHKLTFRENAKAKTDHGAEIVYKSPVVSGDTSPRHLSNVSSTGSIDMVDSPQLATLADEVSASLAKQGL

B1: human MARK4 (microtubule affinity regulating kinase 4) (protein)
chain: MSSRTVLAPGNDRNSDTHGTLGSGRSSDKGPSWSSRSLGARCRNSIASCPEEQPHVGNYRLLRTIGKGNFAKVKLARHILTGREVAIKIIDKTQLNPSSLQKLFREVRIMKGLNHPNIVKLFEVIETEKTLYLVMEYASAGEVFDYLVSHGRMKEKEARAKFRQIVSAVHYCHQKNIVHRDLKAENLLLDAEANIKIADFGFSNEFTLGSKLDTFCGSPPYAAPELFQGKKYDGPEVDIWSLGVILYTLVSGSLPFDGHNLKELRERVLRGKYRVPFYMSTDCESILRRFLVLNPAKRCTLEQIMKDKWINIGYEGEELKPYTEPEEDFGDTKRIEVMVGMGYTREEIKESLTSQKYNEVTATYLLLGRKTEEGGDRGAPGLALARVRAPSDTTNGTSSSKGTSHSKGQRSSSSTYHRQRRHSDFCGPSPAPLHPKRSPTSTGEAELKEERLPGRKASCSTAGSGSRGLPPSSPMVSSAHNPNKAEIPERRKDSTSTPNNLPPSMMTRRNTYVCTERPGAERPSLLPNGKENSSGTPRVPPASPSSHSLAPPSGERSRLARGSTIRSTFHGGQVRDRRAGGGGGGGVQNGPPASPTLAHEAAPLPAGRPRPTTNLFTKLTSKLTRRVADEPERIGGPEVTSCHLPWDQTETAPRLLRFPWSVKLTSSRPPEALMAALRQATAAARCRCRQPQPFLLACLHGGAGGPEPLSHFEVEVCQLPRPGLRGVLFRRVAGTALAFRTLVTRISNDLEL
For B1, the “in vitro kinase assay: phospho-tau, Western blot” value was “the levels of total tau and phospho-tau generated by MARK4 were detected by Western blot analysis”.
